Our source for the EC50, inhibition of VSV-SARS-CoV-2-SΔ21 infection (GRNT, Vero E6 cells) values is patent US20230346919A1.

The target in the experiment is SARS-CoV-2 spike SΔ21 displayed on VSV-eGFP-SARS-CoV-2-SΔ21 particles (SARS-CoV-2 isolate Wuhan-Hu-1) (UniProt P0DTC2). The experiment in a line: cell-based or functional assay.

Substance “human ACE2-Fc (hACE2 residues 1-615, HRV-3C site, human IgG1 Fc) (from UniProt Q9BYF1 18-615) (Fc fusion)” yielded an EC50, inhibition of VSV-SARS-CoV-2-SΔ21 infection (GRNT, Vero E6 cells) of 29 µg/mL.
